Starred links: 1 amine or outer side, 2 acyl side, 3 side chain; linkers in the order of their positions; H or OH if unused. Positions of bridges follow the written chain, without caps; N, C: chain ends. Groups on a side chain read outwards from the residue. No end group written: not given here. *: point of attachment. C20 diacid = O=C(O)CCCCCCCCCCCCCCCCCCC(=O)*; C18 diacid = O=C(O)CCCCCCCCCCCCCCCCC(=O)*; γGlu = O=C(O)[C@H](CCC(=O)[*:2])N[*:1]; AEEA = NCCOCCOCC(=O)O
B1: N-alpha-[(S)-4-Carboxy-4-(19-carboxynonadecanoylamino)butyryl]-[His1,Glu14,His17,His35]-pramlintide (peptide)
peptide: {C20 diacid-γGlu}-HCNTATCATQRLAEFLHHSSNNFGPILPPTNVGSHTY-NH2
modifications: disulfide 2-7; not fully specified; printed as N-alpha-[(S)-4-Carboxy-4-(19-carboxynonadecanoylamino)butyryl]-[His1,Glu14,His17,His35]-pramlintide
B2: N-alpha-[(S)-4-Carboxy-4-(19-carboxynonadecanoylamino)butyryl]-[His1,Glu14,His17,Pro37]-pramlintide (peptide)
peptide: {C20 diacid-γGlu}-HCNTATCATQRLAEFLHHSSNNFGPILPPTNVGSNTP-NH2
modifications: disulfide 2-7; not fully specified; printed as N-alpha-[(S)-4-Carboxy-4-(19-carboxynonadecanoylamino)butyryl]-[His1,Glu14,His17,Pro37]-pramlintide
B3: N-epsilon25-[2-(2-{2-[2-(2-{2-[(S)-4-Carboxy-4-(17-carboxyheptadecanoylamino)butyrylamino]ethoxy}ethoxy)acetylamino]ethoxy}ethoxy)acetyl]-[Glu14,His17,Lys25]-pr … (peptide)
peptide: KCNTATCATQRLAEFLHHSSNNFGK([AEEA-AEEA-γGlu-C18 diacid])ILPPTNVGSNTY-NH2
modifications: disulfide 2-7; N-terminus assumed
SMILES: CC[C@H](C)[C@H](NC(=O)[C@H](CCCCNC(=O)COCCOCCNC(=O)COCCOCCNC(=O)CC[C@H](NC(=O)CCCCCCCCCCCCCCCCC(=O)O)C(=O)O)NC(=O)CNC(=O)[C@H](Cc1ccccc1)NC(=O)[C@H](CC(N)=O)NC(=O)[C@H](CC(N)=O)NC(=O)[C@H](CO)NC(=O)[C@H](CO)NC(=O)[C@H](Cc1c[nH]cn1)NC(=O)[C@H](Cc1c[nH]cn1)NC(=O)[C@H](CC(C)C)NC(=O)[C@H](Cc1ccccc1)NC(=O)[C@H](CCC(=O)O)NC(=O)[C@H](C)NC(=O)[C@H](CC(C)C)NC(=O)[C@H](CCCNC(=N)N)NC(=O)[C@H](CCC(N)=O)NC(=O)[C@@H](NC(=O)[C@H](C)NC(=O)[C@@H]1CSSC[C@H](NC(=O)[C@@H](N)CCCCN)C(=O)N[C@@H](CC(N)=O)C(=O)N[C@@H]([C@@H](C)O)C(=O)N[C@@H](C)C(=O)N[C@@H]([C@@H](C)O)C(=O)N1)[C@@H](C)O)C(=O)N[C@@H](CC(C)C)C(=O)N1CCC[C@H]1C(=O)N1CCC[C@H]1C(=O)N[C@H](C(=O)N[C@@H](CC(N)=O)C(=O)N[C@H](C(=O)NCC(=O)N[C@@H](CO)C(=O)N[C@@H](CC(N)=O)C(=O)N[C@H](C(=O)N[C@@H](Cc1ccc(O)cc1)C(N)=O)[C@@H](C)O)C(C)C)[C@@H](C)O
B4: N-epsilon21-[2-(2-{2-[2-(2-{2-[(S)-4-Carboxy-4-(17-carboxyheptadecanoylamino)butyrylamino]ethoxy}ethoxy)acetylamino]ethoxy}ethoxy)acetyl]-[Glu14,His17,Lys21,Glu … (peptide)
peptide: KCNTATCATQRLAEFLHHSSK([AEEA-AEEA-γGlu-C18 diacid])NFGPILPPTNVGSETY-NH2
modifications: disulfide 2-7; N-terminus assumed
SMILES: CC[C@H](C)[C@H](NC(=O)[C@@H]1CCCN1C(=O)CNC(=O)[C@H](Cc1ccccc1)NC(=O)[C@H](CC(N)=O)NC(=O)[C@H](CCCCNC(=O)COCCOCCNC(=O)COCCOCCNC(=O)CC[C@H](NC(=O)CCCCCCCCCCCCCCCCC(=O)O)C(=O)O)NC(=O)[C@H](CO)NC(=O)[C@H](CO)NC(=O)[C@H](Cc1c[nH]cn1)NC(=O)[C@H](Cc1c[nH]cn1)NC(=O)[C@H](CC(C)C)NC(=O)[C@H](Cc1ccccc1)NC(=O)[C@H](CCC(=O)O)NC(=O)[C@H](C)NC(=O)[C@H](CC(C)C)NC(=O)[C@H](CCCNC(=N)N)NC(=O)[C@H](CCC(N)=O)NC(=O)[C@@H](NC(=O)[C@H](C)NC(=O)[C@@H]1CSSC[C@H](NC(=O)[C@@H](N)CCCCN)C(=O)N[C@@H](CC(N)=O)C(=O)N[C@@H]([C@@H](C)O)C(=O)N[C@@H](C)C(=O)N[C@@H]([C@@H](C)O)C(=O)N1)[C@@H](C)O)C(=O)N[C@@H](CC(C)C)C(=O)N1CCC[C@H]1C(=O)N1CCC[C@H]1C(=O)N[C@H](C(=O)N[C@@H](CC(N)=O)C(=O)N[C@H](C(=O)NCC(=O)N[C@@H](CO)C(=O)N[C@@H](CCC(=O)O)C(=O)N[C@H](C(=O)N[C@@H](Cc1ccc(O)cc1)C(N)=O)[C@@H](C)O)C(C)C)[C@@H](C)O
B5: N-epsilon1-[(S)-4-Carboxy-4-(19-carboxynonadecanoylamino)butyryl]-[Glu14,His17,His35]-pramlintide (peptide)
peptide: K([γGlu-C20 diacid])CNTATCATQRLAEFLHHSSNNFGPILPPTNVGSHTY-NH2
modifications: disulfide 2-7; N-terminus assumed
SMILES: CC[C@H](C)[C@H](NC(=O)[C@@H]1CCCN1C(=O)CNC(=O)[C@H](Cc1ccccc1)NC(=O)[C@H](CC(N)=O)NC(=O)[C@H](CC(N)=O)NC(=O)[C@H](CO)NC(=O)[C@H](CO)NC(=O)[C@H](Cc1c[nH]cn1)NC(=O)[C@H](Cc1c[nH]cn1)NC(=O)[C@H](CC(C)C)NC(=O)[C@H](Cc1ccccc1)NC(=O)[C@H](CCC(=O)O)NC(=O)[C@H](C)NC(=O)[C@H](CC(C)C)NC(=O)[C@H](CCCNC(=N)N)NC(=O)[C@H](CCC(N)=O)NC(=O)[C@@H](NC(=O)[C@H](C)NC(=O)[C@@H]1CSSC[C@H](NC(=O)[C@@H](N)CCCCNC(=O)CC[C@H](NC(=O)CCCCCCCCCCCCCCCCCCC(=O)O)C(=O)O)C(=O)N[C@@H](CC(N)=O)C(=O)N[C@@H]([C@@H](C)O)C(=O)N[C@@H](C)C(=O)N[C@@H]([C@@H](C)O)C(=O)N1)[C@@H](C)O)C(=O)N[C@@H](CC(C)C)C(=O)N1CCC[C@H]1C(=O)N1CCC[C@H]1C(=O)N[C@H](C(=O)N[C@@H](CC(N)=O)C(=O)N[C@H](C(=O)NCC(=O)N[C@@H](CO)C(=O)N[C@@H](Cc1c[nH]cn1)C(=O)N[C@H](C(=O)N[C@@H](Cc1ccc(O)cc1)C(N)=O)[C@@H](C)O)C(C)C)[C@@H](C)O
B6: N-alpha-[(S)-4-Carboxy-4-(19-carboxynonadecanoylamino)butyryl]-[Gly1,Glu14,Arg17,Pro37]-pramlintide (peptide)
peptide: {C20 diacid-γGlu}-GCNTATCATQRLAEFLRHSSNNFGPILPPTNVGSNTP-NH2
modifications: disulfide 2-7
SMILES: CC[C@H](C)[C@H](NC(=O)[C@@H]1CCCN1C(=O)CNC(=O)[C@H](Cc1ccccc1)NC(=O)[C@H](CC(N)=O)NC(=O)[C@H](CC(N)=O)NC(=O)[C@H](CO)NC(=O)[C@H](CO)NC(=O)[C@H](Cc1c[nH]cn1)NC(=O)[C@H](CCCNC(=N)N)NC(=O)[C@H](CC(C)C)NC(=O)[C@H](Cc1ccccc1)NC(=O)[C@H](CCC(=O)O)NC(=O)[C@H](C)NC(=O)[C@H](CC(C)C)NC(=O)[C@H](CCCNC(=N)N)NC(=O)[C@H](CCC(N)=O)NC(=O)[C@@H](NC(=O)[C@H](C)NC(=O)[C@@H]1CSSC[C@H](NC(=O)CNC(=O)CC[C@H](NC(=O)CCCCCCCCCCCCCCCCCCC(=O)O)C(=O)O)C(=O)N[C@@H](CC(N)=O)C(=O)N[C@@H]([C@@H](C)O)C(=O)N[C@@H](C)C(=O)N[C@@H]([C@@H](C)O)C(=O)N1)[C@@H](C)O)C(=O)N[C@@H](CC(C)C)C(=O)N1CCC[C@H]1C(=O)N1CCC[C@H]1C(=O)N[C@H](C(=O)N[C@@H](CC(N)=O)C(=O)N[C@H](C(=O)NCC(=O)N[C@@H](CO)C(=O)N[C@@H](CC(N)=O)C(=O)N[C@H](C(=O)N1CCC[C@H]1C(N)=O)[C@@H](C)O)C(C)C)[C@@H](C)O

What was measured:
Test in all cases: cell-based or functional assay
[1] = biological target: T1, human amylin 3(a) receptor (human calcitonin receptor + RAMP-3) (human, UniProt P30988 25-474; O60896 24-148)
T1 sequence (looked up) 1: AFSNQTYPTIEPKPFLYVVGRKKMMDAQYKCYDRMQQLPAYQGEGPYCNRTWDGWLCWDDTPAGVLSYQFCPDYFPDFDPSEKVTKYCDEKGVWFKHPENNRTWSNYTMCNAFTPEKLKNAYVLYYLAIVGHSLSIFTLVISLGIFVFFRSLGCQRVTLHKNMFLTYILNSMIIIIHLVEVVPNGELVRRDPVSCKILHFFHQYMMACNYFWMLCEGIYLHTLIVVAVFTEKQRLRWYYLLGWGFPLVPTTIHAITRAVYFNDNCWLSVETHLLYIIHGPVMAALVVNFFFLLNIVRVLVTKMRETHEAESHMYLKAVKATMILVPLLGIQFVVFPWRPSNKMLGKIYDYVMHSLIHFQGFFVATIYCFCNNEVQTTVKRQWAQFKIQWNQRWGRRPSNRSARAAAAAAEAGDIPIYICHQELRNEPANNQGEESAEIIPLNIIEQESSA
T1 sequence (looked up) 2: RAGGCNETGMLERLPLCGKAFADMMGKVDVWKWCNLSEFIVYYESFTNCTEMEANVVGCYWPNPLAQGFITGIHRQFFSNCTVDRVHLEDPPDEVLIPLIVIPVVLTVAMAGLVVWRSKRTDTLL

[2] = biological target: T2, human calcitonin (a) receptor (human, UniProt P30988 25-474)
T2 sequence (looked up): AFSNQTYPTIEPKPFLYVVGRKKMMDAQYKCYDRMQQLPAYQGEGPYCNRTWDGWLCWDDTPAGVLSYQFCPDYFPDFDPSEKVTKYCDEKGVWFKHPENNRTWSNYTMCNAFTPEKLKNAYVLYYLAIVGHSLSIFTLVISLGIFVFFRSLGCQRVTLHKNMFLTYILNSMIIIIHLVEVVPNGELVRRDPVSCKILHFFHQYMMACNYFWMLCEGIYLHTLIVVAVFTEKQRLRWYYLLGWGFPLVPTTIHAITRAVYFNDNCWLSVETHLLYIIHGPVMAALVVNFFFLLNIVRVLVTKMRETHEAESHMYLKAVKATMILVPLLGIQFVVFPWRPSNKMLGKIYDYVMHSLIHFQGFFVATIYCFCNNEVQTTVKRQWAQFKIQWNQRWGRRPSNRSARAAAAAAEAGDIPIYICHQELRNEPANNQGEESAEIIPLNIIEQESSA

[3] = biological target: T3, rat amylin 3(a) receptor (rat calcitonin(a) receptor + rat RAMP3) (rat, UniProt P32214 25-516; Q9JJ73 23-147)
T3 sequence (looked up) 1: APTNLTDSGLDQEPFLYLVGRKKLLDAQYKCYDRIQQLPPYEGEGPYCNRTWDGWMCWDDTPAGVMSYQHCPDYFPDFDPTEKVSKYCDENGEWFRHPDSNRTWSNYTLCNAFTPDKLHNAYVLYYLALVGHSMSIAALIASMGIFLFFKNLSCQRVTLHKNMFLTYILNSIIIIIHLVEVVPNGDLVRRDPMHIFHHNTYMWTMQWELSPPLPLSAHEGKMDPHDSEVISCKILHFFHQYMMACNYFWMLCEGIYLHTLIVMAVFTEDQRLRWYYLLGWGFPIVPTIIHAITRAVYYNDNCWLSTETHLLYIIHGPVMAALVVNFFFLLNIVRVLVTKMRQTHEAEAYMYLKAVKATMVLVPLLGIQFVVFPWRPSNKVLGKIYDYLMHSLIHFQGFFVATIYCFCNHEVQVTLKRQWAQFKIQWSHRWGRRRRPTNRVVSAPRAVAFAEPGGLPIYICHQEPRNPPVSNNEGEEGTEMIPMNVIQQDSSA
T3 sequence (looked up) 2: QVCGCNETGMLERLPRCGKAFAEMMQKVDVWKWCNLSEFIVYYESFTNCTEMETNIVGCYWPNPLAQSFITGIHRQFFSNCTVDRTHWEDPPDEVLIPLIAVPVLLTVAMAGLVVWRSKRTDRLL

[4] = biological target: T4, rat calcitonin (a) receptor (rat, UniProt P32214 25-516)
T4 sequence (looked up): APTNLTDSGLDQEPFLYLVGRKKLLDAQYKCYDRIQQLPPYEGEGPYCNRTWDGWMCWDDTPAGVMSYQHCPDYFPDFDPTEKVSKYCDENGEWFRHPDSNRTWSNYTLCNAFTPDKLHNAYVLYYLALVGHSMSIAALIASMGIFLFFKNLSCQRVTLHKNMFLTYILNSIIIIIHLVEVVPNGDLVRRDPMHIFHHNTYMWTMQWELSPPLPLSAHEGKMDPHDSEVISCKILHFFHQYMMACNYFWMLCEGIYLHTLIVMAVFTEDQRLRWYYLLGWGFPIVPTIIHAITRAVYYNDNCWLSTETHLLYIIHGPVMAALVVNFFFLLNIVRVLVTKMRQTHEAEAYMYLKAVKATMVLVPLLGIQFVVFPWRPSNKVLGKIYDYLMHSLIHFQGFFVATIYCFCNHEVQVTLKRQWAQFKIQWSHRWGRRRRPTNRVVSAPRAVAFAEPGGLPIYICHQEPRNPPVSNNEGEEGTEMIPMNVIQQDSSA

| Binder | Amylin receptor human EC50 [1] | CTa receptor human EC50 [2] | Amylin receptor rat EC50 [3] | CTa receptor rat EC50 [4] |
| --- | --- | --- | --- | --- |
| B1 | 0.121 nM | 0.0855 nM | 0.224 nM | 1.04 nM |
| B2 | 0.0925 nM | 0.067 nM | 0.121 nM | 0.109 nM |
| B3 | 0.0385 nM | 0.045 nM | 0.052 nM | 0.167 nM |
| B4 | 0.184 nM | 0.216 nM | 0.504 nM | 2.06 nM |
| B5 | 0.142 nM | 0.228 nM | 0.106 nM | 0.437 nM |
| B6 | 0.036 nM | 0.055 nM | 0.3 nM | 0.37 nM |

— US20130005646A1 (Novo Nordisk, published 2013)
